Measurements from patent publication US20250250357A1 (NANJING ZAIMING PHARMACEUTICAL, published 2025).
Where two headings read alike, the source gives them in different places.

T1: monkey MSLN on HEK293T-monkey MSLN recombinant cells (monkey)
T1 construct: Full-length precursor as transfected; processing on the cell is not described; also called HEK293-monkey MSLN
T1 chain: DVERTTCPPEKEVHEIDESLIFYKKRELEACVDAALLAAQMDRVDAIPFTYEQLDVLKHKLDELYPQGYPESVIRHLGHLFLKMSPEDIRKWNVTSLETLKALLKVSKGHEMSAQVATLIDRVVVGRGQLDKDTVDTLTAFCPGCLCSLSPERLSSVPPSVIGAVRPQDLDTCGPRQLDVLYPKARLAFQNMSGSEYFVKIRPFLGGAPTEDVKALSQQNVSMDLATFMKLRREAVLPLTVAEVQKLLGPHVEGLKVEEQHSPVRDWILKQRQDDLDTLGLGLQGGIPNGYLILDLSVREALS


Legend:
[1] = molecular target: T2, human MSLN-R3 on HEK293T-hMSLN-R3 recombinant cells (human, UniProt Q13421 487-606); assay: FACS, HEK293T-hMSLN-R3 cells
T2 construct: the C-terminal limit is uncertain; also called human MSLN-R3 membrane protein

[2] = molecular target: T3, human MSLN on OVCAR3 tumor cells (human, UniProt Q13421 296-598); assay: FACS, OVCAR3 cells
T3 construct: whole, on cells; also called human MSLN protein

[3] = molecular target: T1, monkey MSLN on HEK293T-monkey MSLN …; assay: FACS, HEK293T-monkey MSLN cells
[4] = molecular target: T3, human MSLN on OVCAR3 tumor cells; assay: FACS, OVCAR3 cells; remark: listed apart in the source
[5] = molecular target: T2, human MSLN-R3 on HEK293T-hMSLN-R3 …; assay: FACS, HEK293T-hMSLN-R3 cells; remark: listed apart in the source
[6] = molecular target: T1, monkey MSLN on HEK293T-monkey MSLN …; assay: FACS, HEK293T-monkey MSLN cells
[7] = molecular target: T4, human MSLN-hFc recombinant protein (human, UniProt Q13421 296-580); assay: SPR (Biacore 8K), MSLN-hFc captured, antibody injected
T4 construct: Captured by an anti-human IgG antibody on the chip; also called human MSLN protein; Acro MSN-H5253
T4 sequence (Q13421 other isoform, or with tags, fused parts or gaps): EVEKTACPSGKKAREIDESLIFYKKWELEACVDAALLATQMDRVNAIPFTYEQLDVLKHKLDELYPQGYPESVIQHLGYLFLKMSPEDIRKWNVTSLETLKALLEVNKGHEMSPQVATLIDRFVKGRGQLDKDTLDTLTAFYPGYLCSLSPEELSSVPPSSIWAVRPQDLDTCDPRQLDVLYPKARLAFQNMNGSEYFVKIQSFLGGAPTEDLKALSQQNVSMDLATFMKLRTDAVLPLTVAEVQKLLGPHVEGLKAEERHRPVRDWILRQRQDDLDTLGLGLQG

T2 sequence (Q13421 495-614): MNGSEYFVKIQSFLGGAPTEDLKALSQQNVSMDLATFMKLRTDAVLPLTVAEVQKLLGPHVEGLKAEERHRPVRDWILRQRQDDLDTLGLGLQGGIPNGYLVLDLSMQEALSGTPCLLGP
T3 sequence (Q13421 other isoform, or with tags, fused parts or gaps): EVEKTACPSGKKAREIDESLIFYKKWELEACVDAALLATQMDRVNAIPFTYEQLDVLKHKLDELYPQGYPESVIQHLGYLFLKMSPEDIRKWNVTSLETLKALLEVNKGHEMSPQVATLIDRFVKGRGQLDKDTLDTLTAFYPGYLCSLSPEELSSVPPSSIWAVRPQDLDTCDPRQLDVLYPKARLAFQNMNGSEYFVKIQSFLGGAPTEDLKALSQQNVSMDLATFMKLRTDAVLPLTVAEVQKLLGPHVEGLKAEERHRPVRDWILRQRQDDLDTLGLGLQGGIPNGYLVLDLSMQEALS

Binder	EC50 [1]	Maximum_MFI [1]	EC50 [2]	Maximum_MFI [2]	EC50 [3]	Maximum_MFI [3]	EC50 [4]	Maximum_MFI [4]	EC50 [5]	Maximum_MFI [5]	EC50 [6]	Maximum_MFI [6]	Kd [7]	koff [7]	kon [7]
F7.33.24-H1 (scFv, not shown: small tags and cut ends, also called S009-F7.33.24 humanized antibody VH1 + VL1) scFv: EVQLVQSGAEVKKPGASVKVSCKASGYTFTSYWMHWVRQAPGQRLEWMGNVNPSNGGSNYNEKFKNRVTITVDKSASTAYMELSSLRSEDTAVYYCAPHYIGSRPGFAYWGQGTLVTVSSGGGGSGGGGSGGGGSDIVMTQSPDSLAVSLGERATINCKASQNVGTNIAWYQQKPGQSPKALIYSASYRYSGVPDRFSGSGSGTDFTLTISSLQAEDVAVYYCQQYNSYPLTFGGGTKVEIK	2.55 nM	2190 MFI	1.05 nM	2180 MFI	4.16 nM	9050 MFI	–	–	–	–	–	–	–	–	–
F7.33.24-H7 (scFv, not shown: small tags and cut ends, also called S009-F7.33.24 humanized antibody VH2 + VL1) scFv: EVQLVQSGAEVKKPGASVKVSCKASGYTFTSYWMHWVRQAPGQGLEWMGNVNPSNGGSNYNEKFKNRVTITVDKSASTAYMELSSLRSEDTAVYYCAPHYIGSRPGFAYWGQGTLVTVSSGGGGSGGGGSGGGGSDIVMTQSPDSLAVSLGERATINCKASQNVGTNIAWYQQKPGQSPKALIYSASYRYSGVPDRFSGSGSGTDFTLTISSLQAEDVAVYYCQQYNSYPLTFGGGTKVEIK	1.61 nM	1650 MFI	2 nM	2190 MFI	5 nM	8820 MFI	–	–	–	–	–	–	–	–	–
F7.33.24-H10 (scFv, not shown: small tags and cut ends, also called S009-F7.33.24 humanized antibody VH2a + VL1) scFv: EVQLVQSGAEVKKPGASVKVSCKASGYTFTSYWMHWVRQAPGQGLEWMGNVNPSNAGSNYNEKFKNRVTITVDKSASTAYMELSSLRSEDTAVYYCAPHYIGSRPGFAYWGQGTLVTVSSGGGGSGGGGSGGGGSDIVMTQSPDSLAVSLGERATINCKASQNVGTNIAWYQQKPGQSPKALIYSASYRYSGVPDRFSGSGSGTDFTLTISSLQAEDVAVYYCQQYNSYPLTFGGGTKVEIK	1.1 nM	1560 MFI	3.04 nM	2090 MFI	3.94 nM	8620 MFI	–	–	–	–	–	–	–	–	–
F7.33.24-H4 (scFv, not shown: small tags and cut ends, also called S009-F7.33.24 humanized antibody VH1a + VL1) scFv: EVQLVQSGAEVKKPGASVKVSCKASGYTFTSYWMHWVRQAPGQRLEWMGNVNPSSGGSNYNEKFKNRVTITVDKSASTAYMELSSLRSEDTAVYYCAPHYIGSRPGFAYWGQGTLVTVSSGGGGSGGGGSGGGGSDIVMTQSPDSLAVSLGERATINCKASQNVGTNIAWYQQKPGQSPKALIYSASYRYSGVPDRFSGSGSGTDFTLTISSLQAEDVAVYYCQQYNSYPLTFGGGTKVEIK	2.15 nM	1960 MFI	3.04 nM	2230 MFI	5.23 nM	9380 MFI	–	–	–	–	–	–	–	–	–
F7.44.20-H5 (scFv, not shown: small tags and cut ends, also called S009-F7.44.20 humanized antibody VH1a + VL1) scFv: EVQLVQSGAEVKKPGASVKVSCKASGYTFTDYNMDWVRQAPGQGLEWMGDINPSTGGTIYNQKFQGRVTMTEDKSTSTVYMELSSLRSEDTAVYYCARRRIGTGYFDVWGQGTTVTVSSGGGGSGGGGSGGGGSEIVLTQSPDFQSVTPKEKVTITCSASSSVISSYLSWYQQKPDQSPKLLIYRTSNLASGVPSRFSGSGSGTDFTLTINSLEAEDAATYYCHQWSSFPYTFGGGTKVEIK	–	–	–	–	–	–	1 nM	1960 MFI	0.94 nM	1700 MFI	4.55 nM	7780 MFI	0.709 nM	0.000313 s⁻¹	442000 M⁻¹ s⁻¹

Other lines, results leading:

EC50 [1]	Maximum_MFI [1]	EC50 [2]	Maximum_MFI [2]	EC50 [3]	Maximum_MFI [3]	EC50 [4]	Maximum_MFI [4]	EC50 [5]	Maximum_MFI [5]	EC50 [6]	Maximum_MFI [6]	Kd [7]	koff [7]	kon [7]	Binder
–	–	–	–	–	–	0.61 nM	1950 MFI	1.14 nM	1680 MFI	3.74 nM	7210 MFI	–	–	–	F7.44.20-H11 (scFv, not shown: small tags and cut ends, also called S009-F7.44.20 humanized antibody VH2 + VL3) scFv: EVQLVQSGAEVKKPGASVKVSCKASGYTFTDYNMDWVRQAPGQGLEWMGDINPSTGGTIYNQKFNGRVTMTEDKSASTVYMELSSLRSEDTAVYYCARRRIGTGYFDVWGQGTTVTVSSGGGGSGGGGSGGGGSEIVLTQSPATLSLSPGERATLSCSASSSVISSYLSWYQQKPGQSPRLLIYRTSNLASGIPARFSGSGSGTDYTLTISSLEPEDFAVYYCHQWSSFPYTFGGGTKVEIK
–	–	–	–	–	–	1.5 nM	2100 MFI	2.88 nM	1410 MFI	10.3 nM	6670 MFI	–	–	–	F7.44.20-H12 (scFv, not shown: small tags and cut ends, also called S009-F7.44.20 humanized antibody VH2 + VL4) scFv: EVQLVQSGAEVKKPGASVKVSCKASGYTFTDYNMDWVRQAPGQGLEWMGDINPSTGGTIYNQKFNGRVTMTEDKSASTVYMELSSLRSEDTAVYYCARRRIGTGYFDVWGQGTTVTVSSGGGGSGGGGSGGGGSEIVLTQSPATLSLSPGERATLSCSASSSVISSYLSWYQQKPGSSPRLLIYRTSNLASGIPARFSGSGSGTDYTLTISSLEPEDFAVYYCHQWSSFPYTFGGGTKVEIK
–	–	–	–	–	–	1.66 nM	1650 MFI	2.23 nM	1440 MFI	12.2 nM	5980 MFI	1.85 nM	0.000679 s⁻¹	367000 M⁻¹ s⁻¹	F7.44.20-H16 (scFv, not shown: small tags and cut ends, also called S009-F7.44.20 humanized antibody VH2a + VL4) scFv: EVQLVQSGAEVKKPGASVKVSCKASGYTFTDYNMDWVRQAPGQGLEWMGDINPSTGGTIYNQKFSGRVTMTEDKSASTVYMELSSLRSEDTAVYYCARRRIGTGYFDVWGQGTTVTVSSGGGGSGGGGSGGGGSEIVLTQSPATLSLSPGERATLSCSASSSVISSYLSWYQQKPGSSPRLLIYRTSNLASGIPARFSGSGSGTDYTLTISSLEPEDFAVYYCHQWSSFPYTFGGGTKVEIK
–	–	–	–	–	–	1.77 nM	1930 MFI	0.91 nM	1500 MFI	4.47 nM	8090 MFI	–	–	–	F7.44.20-H15 (scFv, not shown: small tags and cut ends, also called S009-F7.44.20 humanized antibody VH2a + VL3) scFv: EVQLVQSGAEVKKPGASVKVSCKASGYTFTDYNMDWVRQAPGQGLEWMGDINPSTGGTIYNQKFSGRVTMTEDKSASTVYMELSSLRSEDTAVYYCARRRIGTGYFDVWGQGTTVTVSSGGGGSGGGGSGGGGSEIVLTQSPATLSLSPGERATLSCSASSSVISSYLSWYQQKPGQSPRLLIYRTSNLASGIPARFSGSGSGTDYTLTISSLEPEDFAVYYCHQWSSFPYTFGGGTKVEIK
–	461 MFI	–	–	–	–	–	–	–	461 MFI	–	–	–	–	–	Tab110 (scFv, not shown: small tags and cut ends, also called YP218 VH-(G4S)3-VL-his antibody; positive control) scFv: QQQLEESGGGLVKPEGSLTLTCKASGFDLGFYFYACWVRQAPGKGLEWIACIYTAGSGSTYYASWAKGRFTISKASSTTVTLQMTSLAAADTATYFCARSTANTRSTYYLNLWGPGTLVTVSSGGGGSGGGGSGGGGSDVVMTQTPASVSEPVGGTVTIKCQASQRISSYLSWYQQKPGQRPKLLIFGASTLASGVPSRFKGSGSGTEYTLTISDLECADAATYYCQSYAYFDSNNWHAFGGGTEVVV
–	–	–	–	–	–	1.61 nM	2220 MFI	1.67 nM	1560 MFI	8.05 nM	7460 MFI	0.464 nM	0.000208 s⁻¹	449000 M⁻¹ s⁻¹	F7.44.20-H9 (scFv, not shown: small tags and cut ends, also called S009-F7.44.20 humanized antibody VH2 + VL1) scFv: EVQLVQSGAEVKKPGASVKVSCKASGYTFTDYNMDWVRQAPGQGLEWMGDINPSTGGTIYNQKFNGRVTMTEDKSASTVYMELSSLRSEDTAVYYCARRRIGTGYFDVWGQGTTVTVSSGGGGSGGGGSGGGGSEIVLTQSPDFQSVTPKEKVTITCSASSSVISSYLSWYQQKPDQSPKLLIYRTSNLASGVPSRFSGSGSGTDFTLTINSLEAEDAATYYCHQWSSFPYTFGGGTKVEIK
